Source: patent US20250243265A1 (published 2025)
Changes are numbered by the printed parent chain. Numbers in names are those of the source.

B1: 1F11 IgG (antibody, V domains shown)
VH: EVQLVESGGGLVQPGGSLRLSCAASGFTFSNTYISWVRQAPGKGLEWVASITPSSGSTDYADSVKGRFTISADTSKNTAYLQMNSLRAEDTAVYYCARTWLLRWVMDYWGQGTLVTVSS
VL: DIQMTQSPSSLSASVGDRVTITCRASQDVSTAVAWYQQKPGKAPKLLIYSAKFLYSGVPSRFSGSGSGTDFTLTISSLQPEDFATYYCQQSYTTPPTFGQGTKVEIK
B2: 1F11/2H5/3F5 triple mutant IgG (antibody, name in Kabat numbering, V domains shown)
VH: B1 VH with S57Q
VL: B1 VL with T94N
notes: S52K put into the 2H5 light chain, paired with the 3F5 heavy chain; human kappa IgG1
B3: 3F5/Y102L T110A IgG (antibody, name in Kabat numbering, V domains shown)
VH: B1 VH with S57Q, Y108L, T116A
VL: B1 VL with K52S
notes: Human kappa IgG1
B4: 1F11/Y102L IgG (antibody, V domains shown)
VH: B1 VH with Y108L
VL: B1 VL
notes: Human kappa IgG1
B5: 3F5/Y102L IgG (antibody, name in Kabat numbering, V domains shown)
VH: B1 VH with S57Q, Y108L
VL: B1 VL with K52S
notes: Human kappa IgG1
B6: 1F11/2C11/3F5 triple mutant IgG (antibody, name in Kabat numbering, V domains shown)
VH: B1 VH with S57Q
VL: B1 VL with T94Q
notes: S52K put into the 2C11 light chain, paired with the 3F5 heavy chain; human kappa IgG1
B7: 1F11/Y102L T110A IgG (antibody, name in Kabat numbering, V domains shown)
VH: B1 VH with Y108L, T116A
VL: B1 VL
notes: Human kappa IgG1

Biological target: T1, K63-linked diubiquitin (Boston Biochem) (Homo sapiens (Human), UniProt P0CG48 1-76, isopeptide bond between the C-terminus of one ubiquitin and Lys63 of the other)
T1 construct: Two ubiquitin units; also called K63 diUb
Assay: western blot
Description: Non-specific binding sites on the membranes were blocked by incubation in 5% milk in PBST for 1 hour at 25° C. with shaking. […] The membranes were washed three times in PBST with shaking. The IgGs were detected by incubating the membrane in a 1:10,000 dilution of a goat anti-human Fc fragment-specific IR Dye 800CW-conjugated secondary antibody (Rockland Immunochemicals) in 5% milk in PBST for 30 minutes at 25° C. with shaking. The membranes were then washed three times in PBST followed by one wash in PBS.

Row | binding result | Binder
1 | no binding | B1

Biological target: linear diubiquitin (Boston Biochem) (Homo sapiens (Human), UniProt P0CG48 1-152)
Assay: western blot, 1 µg/mL IgG

Row | binding result | Binder
2 | binds | B2
3 | binds | B3
4 | binds | B4
5 | binds | B5
6 | binds | B6
7 | binds | B7
